Measured values from patent publication US10502741B2, “Means and methods for detecting activated MALT1” (Helmholtz Zentrum München Deutsches Forschungszentrum für …, priority 2014, dated 2019).

Assays:
cathepsin B = cathepsin B (Homo sapiens, UniProt P07858); experiment: Labeling with diagnostic inhibitor in cell extracts (gel-based, fluorescence scan): about 30 kDa cathepsin B band; parameters: endogenous in cells; host or cells: Jurkat T cells; HBL1 and other DLBCL cell lines
Experimental: (§1) Jurkat T cells were cultured in standard RPMI medium containing 10% FCS, 100 U/ml Penicillin/Streptomycin and 2 mM Glutamin. DNA transfection of 6 μg DNA in 8×10^6 Jurkat T cells was performed by electroporation in a GenePulser Xcell (BioRad) with a 220 Volt pulse. For siRNA experiments, Jurkat T cells were transfected with 100 nM siRNA and Atufect transfection reagent (Silence Therapeutics, Berlin). Jurkat T cells were stimulated either with 200 ng/ml PMA (phorbol 12-myristate 13-acetate) and 300 ng/ml Ionomycin (both Calbiochem) or CD3/CD28 antibody co-ligation (human CD3: 1 μg/ml; human CD28: 4 μg/ml; mouse IgG1: 2 μg/ml; mouse IgG2a: 2 μg/ml; BD Biosciences). DLBCL cell lines (HBL1, TMD8, OCI-Ly3, U2932, RIVA, BJAB, Su-DHL-4 and Su-DHL-6) were cultured in standard RPMI medium containing 20% FCS, 100 U/ml Penicillin/Streptomycin and 2 mM Glutamin. OCI-Ly10 cell line was cultured in IMDM containing 20% human serum, 100 U/ml Penicillin/Streptomycin, 2 U/ml heparine, 50 μM β-mercaptoethanol. Inhibitors 10 μM (z-VRPR-FMK, Mepazine, Thioridazine, CA-074Me) were added to the cells in media for 1 h, prior to stimulation and labeling with diagnostic MALT1 inhibitor.
Jurkat T cells (1-2×10^7), primary human PBMCs or primary human T cells (0.25 or 1×10^7) were lysed in 150 μl co-IP buffer without protease inhibitors. DLBCL (3×10^7) were lysed in 250 μl buffer. After centrifugation (14000 rpm, 10 min, 4° C.), 100 μl extract (DLBCL: 200 μl) was stained with probe 5 or probe 6 (3 μM end) for 50 min at 29° C., mixed with 4× loading dye and boiled.

active MALT1 = biological target: T1, active MALT1 (Homo sapiens, UniProt Q9UDY8); experiment: Probe 7-pulldown with streptavidin beads and western blot; type: cell-based; settings: Jurkat T cells pretreated with 10 μM inhibitors, 0.1 μM probe 7
T1 construct: endogenous in cells; host or cells: Jurkat T cells, primary human PBMCs and T cells, DLBCL cell lines (HBL1, TMD8, OCI-Ly3, OCI-Ly10, U2932, RIVA, BJAB, Su-DHL-4, Su-DHL-6)
T1 sequence (Q9UDY8 1-824): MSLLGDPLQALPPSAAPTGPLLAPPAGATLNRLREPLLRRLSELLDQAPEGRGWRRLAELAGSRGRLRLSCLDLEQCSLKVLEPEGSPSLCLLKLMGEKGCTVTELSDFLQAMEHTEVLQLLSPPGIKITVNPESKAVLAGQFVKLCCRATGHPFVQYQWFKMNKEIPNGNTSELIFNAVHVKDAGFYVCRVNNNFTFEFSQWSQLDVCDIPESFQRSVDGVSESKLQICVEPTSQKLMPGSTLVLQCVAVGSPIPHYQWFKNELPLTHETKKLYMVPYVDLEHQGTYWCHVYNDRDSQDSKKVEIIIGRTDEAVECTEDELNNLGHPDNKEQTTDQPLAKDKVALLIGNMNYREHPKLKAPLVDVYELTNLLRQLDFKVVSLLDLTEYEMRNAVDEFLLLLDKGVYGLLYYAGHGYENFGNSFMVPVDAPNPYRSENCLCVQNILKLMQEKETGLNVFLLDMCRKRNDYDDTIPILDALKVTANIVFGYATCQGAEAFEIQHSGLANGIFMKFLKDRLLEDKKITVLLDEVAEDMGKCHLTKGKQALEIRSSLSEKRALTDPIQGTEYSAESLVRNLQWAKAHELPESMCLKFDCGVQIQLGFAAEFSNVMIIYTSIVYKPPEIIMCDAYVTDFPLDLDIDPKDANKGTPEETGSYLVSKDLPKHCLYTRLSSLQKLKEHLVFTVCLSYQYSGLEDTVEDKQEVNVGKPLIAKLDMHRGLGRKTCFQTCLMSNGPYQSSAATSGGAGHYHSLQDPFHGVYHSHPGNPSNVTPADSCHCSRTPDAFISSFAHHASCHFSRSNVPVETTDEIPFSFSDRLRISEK
Experimental: as §1
Untreated DLBCL (1-2×10^7) or Jurkat T cells (stimulated with PMA/Ionomycin or CD3/28 or left untreated; 1-2×10^7), were lysed in 500 μl co-IP buffer without protease inhibitors, centrifuged, incubated with probe 7 (concentration as depicted) for 1 h at RT then incubated with streptavidin beads for 2 h at 4° C. Precipitate was washed, analysed by SDS-PAGE and western blot.

effect of inhibitor on the about 30 kDa cathepsin B signal labeled by probe 6 (cathepsin B; HBL1 cells, inhibitors 10 μM each): sensitive | effect of inhibitor pretreatment on the band below 34 kDa (cathepsin B) labeled by probe 5 (cathepsin B; Jurkat T cells, 10 μM inhibitor, probe 5): reduced | effect of inhibitor on formation of MALT1-probe 7 complexes (active MALT1): blocked
Substance: z-VRPR-FMK (Z N-terminal cap, FMK warhead)
